{"source": "paper PMC8412382", "binders": {"B1": {"name": "N58 aptamer (SARS-CoV-2-N58) (ssDNA)", "DNA": "GCTGGATGTCACCGGATTGTCGGACATCGGATTGTCTGAGTCATATGACACATCCAGC"}}, "target": "bovine albumin (BSA) (bovine, UniProt P02769 25-607)", "sequence (P02769 25-607)": "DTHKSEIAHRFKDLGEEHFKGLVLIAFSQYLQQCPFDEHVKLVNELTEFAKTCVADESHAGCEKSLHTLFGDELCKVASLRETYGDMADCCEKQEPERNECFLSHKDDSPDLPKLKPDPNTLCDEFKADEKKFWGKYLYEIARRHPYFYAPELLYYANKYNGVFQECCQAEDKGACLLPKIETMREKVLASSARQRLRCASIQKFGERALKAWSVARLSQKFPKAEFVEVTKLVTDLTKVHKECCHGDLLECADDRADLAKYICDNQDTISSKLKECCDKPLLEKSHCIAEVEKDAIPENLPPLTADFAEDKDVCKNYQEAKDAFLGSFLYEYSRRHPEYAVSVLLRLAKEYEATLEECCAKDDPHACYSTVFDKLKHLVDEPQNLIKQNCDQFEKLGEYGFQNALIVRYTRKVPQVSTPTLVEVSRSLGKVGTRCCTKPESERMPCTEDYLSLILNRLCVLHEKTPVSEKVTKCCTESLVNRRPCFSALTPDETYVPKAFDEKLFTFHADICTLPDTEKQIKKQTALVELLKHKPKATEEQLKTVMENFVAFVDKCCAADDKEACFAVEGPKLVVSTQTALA", "experiment": "SPR"}
{"binder": "B1", "values": [{"measurement": "binding result", "value": "no binding"}]}
